From patent US20230340081A1 (Hoffmann-La Roche, published 2023)
Changes are numbered by the printed parent chain.

T1: consensus S-HBs protein of HBV genotype I (ConsHBAg_I) (hepatitis B virus genotype I (consensus), UniProt P31873 175-400)
T1 construct: also called genotype I S-HBs
T1 chain: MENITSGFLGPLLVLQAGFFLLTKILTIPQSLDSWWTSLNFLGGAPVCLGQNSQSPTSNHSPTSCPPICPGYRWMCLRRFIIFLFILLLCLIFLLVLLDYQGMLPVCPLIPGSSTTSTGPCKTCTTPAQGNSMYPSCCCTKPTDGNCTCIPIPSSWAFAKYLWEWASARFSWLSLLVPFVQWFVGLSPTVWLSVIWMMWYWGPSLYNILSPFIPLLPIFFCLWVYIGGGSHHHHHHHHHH

T2: consensus S-HBs protein of HBV genotype E (ConsHBAg_E) (hepatitis B virus genotype E (consensus), UniProt Q69603 174-399)
T2 construct: also called genotype E S-HBs
T2 chain: T1 chain with N3S, K122R, P127L, N131T, Y134F, T140S, T143S, A159G, Y161F, V184A

B1: Bc4.204 (antibody, human IgG1, lambda)
heavy: not shown
light: QSALTQPRSVSGSPGQSVTISCIGTNSDFGRYDYVSWYQQHPDKAPKLLIYDVSQRPSGVPDRFSGSKSGYTASLIISGLQADDEAEYFCCSYAGSFNLVFGGGTKVTVLGQPKAAPSVTLFPPSSEELQANKATLVCLISDFYPGAVTVAWKADSSPVKAGVETTTPSKQSNNKYAASSYLSLTPEQWKSHRSYSCQVTHEGSTVEKTVAPTECS
B2: Bv4.104 (antibody)
heavy: not shown
light: QSALTQPASVSGSPGQSITISCTGTSSDVGNYKSVSWYQHHPGKAPKFMIYEGTQRPSGVSNRFSGSKSGNTASLTISGLQAEDEAHYYCCSYAGSSTWLFGGGTKLTVLGQPKAAPSVTLFPPSSEELQANKATLVCLISDFYPGAVTVAWKADSSPVKAGVETTTPSKQSNNKYAASSYLSLTPEQWKSHRSYSCQVTHEGSTVEKTVAPTECS
notes: also called PIBv4.104
B3: Bc3.106 (antibody)
heavy: not shown
light: DIQMTQSPSSLSASVGDRVTITCRASQGIRNDLGWYQQKPGKAPKRLIYAASSLQSGVPSRFSGSGSGTEFTLTISSLQPEDFATYYCLQHNSYPRTFGQGTKVEIKRTVAAPSVFIFPPSDEQLKSGTASVVCLLNNFYPREAKVQWKVDNALQSGNSQESVTEQDSKDSTYSLSSTLTLSKADYEKHKVYACEVTHQGLSSPVTKSFNRGEC
B4: Bc1.180 (antibody)
heavy: not shown
light: EIVLTQSPGTLSLSPGNRATLSCRASQSVTSNYFAWYQHKPGQAPRVLIYGASSRATGIPDRFSGSGSGTDFTLTISRLEPEDFAVYYCQQFGSLPYTFGQGTKLEIKRTVAAPSVFIFPPSDEQLKSGTASVVCLLNNFYPREAKVQWKVDNALQSGNSQESVTEQDSKDSTYSLSSTLTLSKADYEKHKVYACEVTHQGLSSPVTKSFNRGEC

Biological target: T3, consensus S-HBs protein of HBV genotype F (ConsHBAg_F) (hepatitis B virus genotype F (consensus), UniProt Q05496 175-400)
T3 construct: also called genotype F S-HBs
Experiment: flow cytometry on cells expressing genotype-specific S-HBs

T3 sequence (Q05496 175-400, tags left off): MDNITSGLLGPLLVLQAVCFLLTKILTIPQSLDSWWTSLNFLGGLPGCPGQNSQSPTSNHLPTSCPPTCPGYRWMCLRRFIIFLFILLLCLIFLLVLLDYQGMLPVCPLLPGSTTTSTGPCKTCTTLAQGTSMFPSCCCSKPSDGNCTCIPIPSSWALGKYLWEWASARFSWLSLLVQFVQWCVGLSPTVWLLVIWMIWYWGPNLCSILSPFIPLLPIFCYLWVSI

Binder	binding result
B1	no binding
B2	no binding

Biological target: T4, consensus S-HBs protein of HBV genotype C (ConsHBAg_C) (hepatitis B virus genotype C (consensus), UniProt P03140 175-400)
T4 construct: also called genotype C S-HBs
Experiment: as above

Binder	binding result
B2	no binding

Biological target: T5, consensus S-HBs protein of HBV genotype H (ConsHBAg_H) (hepatitis B virus genotype H (consensus), UniProt Q8JMZ6 175-400)
T5 construct: also called genotype H S-HBs
Experiment: as above

T5 sequence (Q8JMZ6 175-400, tags left off): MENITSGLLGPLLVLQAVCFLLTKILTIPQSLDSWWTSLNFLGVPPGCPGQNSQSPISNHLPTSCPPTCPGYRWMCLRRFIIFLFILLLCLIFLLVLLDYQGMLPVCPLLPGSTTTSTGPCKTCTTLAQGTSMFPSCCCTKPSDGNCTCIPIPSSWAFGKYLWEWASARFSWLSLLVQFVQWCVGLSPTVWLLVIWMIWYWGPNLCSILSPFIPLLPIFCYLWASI

Binder	binding result
B1	no binding
B2	no binding

Biological target: T6, consensus S-HBs protein of HBV genotype A (ConsHBAg_A) (hepatitis B virus genotype A (consensus), UniProt P03141 175-400)
T6 construct: also called genotype A S-HBs
Experiment: as above

Binder	binding result
B2	no binding

Biological target: T7, consensus S-HBs protein of HBV genotype B (ConsHBAg_B) (hepatitis B virus genotype B (consensus), UniProt Q9PWW3 175-400)
T7 construct: also called genotype B S-HBs
Experiment: as above

Binder	binding result
B2	no binding

Biological target: T8, consensus S-HBs protein of HBV genotype G (ConsHBAg_G) (hepatitis B virus genotype G (consensus), UniProt Q9IBI3 174-399)
T8 construct: also called genotype G S-HBs
Experiment: as above

Binder	binding result
B2	no binding

Biological target: T1, consensus S-HBs protein of HBV genotype …
Experiment: as above

Binder	binding result
B2	no binding

Biological target: T9, Adw S-HBs protein (adw HBsAg particles, GenHevac (Adw)) (hepatitis B virus, adw subtype)
T9 construct: also called GenHevac-B
Experiment: ELISA, AUC of binding curve
Set-up: unit not given beside the values

Binder	AUC (serotype binding)
B1	36
B3	36
B4	30
B2	7

Biological target: T10, Ayw S-HBs protein (ayw HBsAg particles, Engerix-B (Ayw)) (hepatitis B virus, ayw subtype)
Experiment: ELISA, AUC of binding curve
Set-up: unit not given beside the values

Binder	AUC (serotype binding)
B1	36
B3	37
B4	23
B2	37

Biological target: HBV genotype D viruses (produced in HepG2.2.15 cell culture supernatant) (hepatitis B virus genotype D)
Experiment: cell-based or functional assay

Binder	HBV-gD in vitro neutralization (IC50 µg/ml)
B1	0.000229 µg/mL
B3	1.39e-07 µg/mL
B4	5e-08 µg/mL

Biological target: genotype D S-HBs mutant protein Y134V (hepatitis B virus genotype D, UniProt P03138 164-389)
Experiment: flow cytometry, S-HBs-transfected 293-F cells

Binder	% of bound S-HBs-expressing cells
B1	57%
B3	69%
B4	25%
B2	60%

Biological target: T2, consensus S-HBs protein of HBV genotype …
Experiment: flow cytometry, S-HBs-transfected 293-F cells

Binder	% of bound S-HBs-expressing cells
B1	65%
B3	59%
B4	46%
B2	73%

Biological target: T3, consensus S-HBs protein of HBV genotype …
Experiment: flow cytometry, S-HBs-transfected 293-F cells

Binder	% of bound S-HBs-expressing cells
B1	0%
B3	55%
B4	42%
B2	1%

Biological target: T4, consensus S-HBs protein of HBV genotype …
Experiment: flow cytometry, S-HBs-transfected 293-F cells

Binder	% of bound S-HBs-expressing cells
B1	65%
B3	83%
B4	43%
B2	5%

Biological target: T5, consensus S-HBs protein of HBV genotype …
Experiment: flow cytometry, S-HBs-transfected 293-F cells

Binder	% of bound S-HBs-expressing cells
B1	1%
B3	59%
B4	55%
B2	1%

Biological target: genotype D S-HBs mutant protein N146S (hepatitis B virus genotype D, UniProt P03138 164-389)
Experiment: flow cytometry, S-HBs-transfected 293-F cells

Binder	% of bound S-HBs-expressing cells
B1	53%
B3	63%
B4	27%
B2	63%

Biological target: T11, consensus S-HBs protein of HBV genotype D (ConsHBAg_D) (hepatitis B virus genotype D (consensus), UniProt P03138 164-389)
T11 construct: also called genotype D S-HBs; ConsD S-HBs
Experiment: flow cytometry, S-HBs-transfected 293-F cells

Binder	% of bound S-HBs-expressing cells
B1	68%
B3	62%
B4	47%
B2	73%

Biological target: genotype D S-HBs mutant protein T126A (hepatitis B virus genotype D, UniProt P03138 164-389)
Experiment: flow cytometry, S-HBs-transfected 293-F cells

Binder	% of bound S-HBs-expressing cells
B1	60%
B3	71%
B4	38%
B2	64%

Biological target: genotype D S-HBs mutant protein M133T (hepatitis B virus genotype D, UniProt P03138 164-389)
Experiment: flow cytometry, S-HBs-transfected 293-F cells

Binder	% of bound S-HBs-expressing cells
B1	59%
B3	66%
B4	25%
B2	64%

Biological target: T6, consensus S-HBs protein of HBV genotype …
Experiment: flow cytometry, S-HBs-transfected 293-F cells

Binder	% of bound S-HBs-expressing cells
B1	74%
B3	70%
B4	57%
B2	1%

Biological target: T7, consensus S-HBs protein of HBV genotype …
Experiment: flow cytometry, S-HBs-transfected 293-F cells

Binder	% of bound S-HBs-expressing cells
B1	65%
B3	55%
B4	45%
B2	1%

Biological target: T8, consensus S-HBs protein of HBV genotype …
Experiment: flow cytometry, S-HBs-transfected 293-F cells

Binder	% of bound S-HBs-expressing cells
B1	71%
B3	65%
B4	39%
B2	1%

Biological target: genotype D S-HBs mutant protein G145R (hepatitis B virus genotype D, UniProt P03138 164-389)
Experiment: flow cytometry, S-HBs-transfected 293-F cells

Binder	% of bound S-HBs-expressing cells
B1	55%
B3	67%
B4	14%
B2	54%

Biological target: T1, consensus S-HBs protein of HBV genotype …
Experiment: flow cytometry, S-HBs-transfected 293-F cells

Binder	% of bound S-HBs-expressing cells
B1	58%
B3	53%
B4	22%
B2	1%

Biological target: T9, Adw S-HBs protein (adw HBsAg particles, …)
Experiment: ELISA on recombinant HBV vaccine particles

Binder	EC50
B1	15.6 ng/mL
B3	42.1 ng/mL
B4	65.3 ng/mL
B2	6580 ng/mL

Biological target: T10, Ayw S-HBs protein (ayw HBsAg particles, …)
Experiment: ELISA on recombinant HBV vaccine particles

Binder	EC50
B1	15 ng/mL
B3	19.3 ng/mL
B4	310 ng/mL
B2	4.6 ng/mL
